From patent US20240417484A1, “ANTIGEN-BINDING POLYPEPTIDES AGAINST CD73” (UNIVERSITÄTSKLINIKUM HAMBURG-EPPENDORF, priority 2021, published 2024) come the findings set out here.

Assay [1] concerns the target T1, recombinant human CD73 ectodomain (aa 27-549) with C-terminal His6x tag (human, UniProt P21589 27-549).
T1 construct: also called soluble recombinant human CD73; soluble human CD73
T1 sequence: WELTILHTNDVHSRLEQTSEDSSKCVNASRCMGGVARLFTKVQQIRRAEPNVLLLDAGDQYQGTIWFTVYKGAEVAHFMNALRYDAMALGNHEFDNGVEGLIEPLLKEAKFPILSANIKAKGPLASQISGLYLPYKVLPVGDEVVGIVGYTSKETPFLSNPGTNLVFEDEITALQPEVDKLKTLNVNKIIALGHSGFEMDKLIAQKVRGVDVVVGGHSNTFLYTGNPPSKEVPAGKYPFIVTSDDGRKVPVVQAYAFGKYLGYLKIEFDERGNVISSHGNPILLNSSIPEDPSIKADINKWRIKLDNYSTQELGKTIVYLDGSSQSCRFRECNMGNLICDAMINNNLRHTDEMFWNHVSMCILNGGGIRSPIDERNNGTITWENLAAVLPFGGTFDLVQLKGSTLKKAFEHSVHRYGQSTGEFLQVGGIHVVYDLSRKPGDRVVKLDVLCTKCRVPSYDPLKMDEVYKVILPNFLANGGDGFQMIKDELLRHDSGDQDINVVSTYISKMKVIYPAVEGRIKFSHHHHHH
Nature of the assay: BLI (Octet), immobilized Nb-rbIgG hcAb, soluble human CD73 as analyte. The procedure: The binding off-rate constants of bivalent hcAbs to human and mouse CD73 protein were determined by […] kinetic analysis on Octet RED96 (ForteBio). Immobilization of rabbit IgG hcAbs on the protein A-biosensor surface was done in HEK-6E cell supernatant, and regeneration of analytes was done with 100 mM Glycin pH=2.5. Recombinant mouse or human CD73 ectodomain was used as analytes and tested at a saturating dose of 200 ng/μl. Sensorgrams were fitted using least square regression in association than dissociation Model in Prism8 (Graphpad).

Assay [2] concerns the target T2, human CD73 on cells (CD73-transfected HEK cells; native on PBMCs; OCI-AML3 cells) (human, UniProt P21589 27-549).
T2 construct: also called NT5E; gene ID 4907
T2 sequence: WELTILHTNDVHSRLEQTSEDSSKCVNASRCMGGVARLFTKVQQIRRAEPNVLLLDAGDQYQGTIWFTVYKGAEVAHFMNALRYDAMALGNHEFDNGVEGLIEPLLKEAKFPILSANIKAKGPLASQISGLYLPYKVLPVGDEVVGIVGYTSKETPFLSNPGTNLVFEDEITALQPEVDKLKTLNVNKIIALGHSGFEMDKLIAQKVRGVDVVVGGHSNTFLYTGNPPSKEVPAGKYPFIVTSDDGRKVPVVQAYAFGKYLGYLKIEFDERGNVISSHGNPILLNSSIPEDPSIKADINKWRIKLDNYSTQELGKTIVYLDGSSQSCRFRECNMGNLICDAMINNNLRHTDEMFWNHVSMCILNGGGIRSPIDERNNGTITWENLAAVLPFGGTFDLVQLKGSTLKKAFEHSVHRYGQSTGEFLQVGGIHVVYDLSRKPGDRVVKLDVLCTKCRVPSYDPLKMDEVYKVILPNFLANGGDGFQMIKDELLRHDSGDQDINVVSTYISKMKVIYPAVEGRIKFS
The assay is described as follows: flow cytometry, human CD73-expressing cells; competitor: human IgG hcAb SB143. As for the experimental part: (§1) The binding specificities of the purified hcAbs were determined by flow cytometry using HEK cells transiently co-transfected with expression vectors for GFP and either mouse CD73, human CD73 or a control protein (CD39). 1×10⁶ cells were incubated with 10 μl of the Nb-rbIgG hcAb containing HEK-6E cell supernatants for 30 min at 4° C. […] The cells were resuspended in PBS and analyzed by flow cytometry on FACS Canto or FACS Celesta (BD Biosciences, Heidelberg). Data evaluation was conducted using the software FlowJo (Treestar, Stanford, US).
(§2) To evaluate the epitopes on the CD73 protein recognized by different VHHs, representative rabbit IgG hcAbs were binned against a set of human IgG hcAbs, and bound hcAbs were detected with a PE-conjugated anti-rabbit IgG secondary antibody. Cells were pre-incubated with excess human IgG hcAbs for […] at RT to block specific epitopes before addition of rabbit IgG hcAbs as detectors and further incubation for 15 min at RT. Cells were washed, and bound antibodies were detected with PE-conjugated anti-rabbit IgG polyclonal antibody. Cells were washed and analyzed by flow cytometry on a BD-FACS Canto. Data were analyzed using the FlowJo software (Treestar). Lack of blockade by a non-binding control human IgG hcAb served as negative control (unblocked), and blockade of binding with the same VHH carrying human IgG hcAb as the rabbit IgG hcAb used for detection served as positive controls for blocking. Values for blocking were determined by comparing the mean fluorescence intensities (MFIs) of PE staining of transfected cells for unblocked vs blocked rabbit hcAbs using the formula: inhibition (%)=100−(MFI (blocked)/MFI MFI(unblocked)*100). The values were rounded to whole percentages.

The target of assay [3] is T2, human CD73 on cells (CD73-transfected …). Nature of the assay: flow cytometry, human CD73-expressing cells; competitor: human IgG hcAb SB139. As for the experimental part: as §1, §2
Assay [4] shares this target. The assay is described as follows: flow cytometry, human CD73-expressing cells; competitor: IPH5301. As for the experimental part: as §1, §2
For assay [5], the target named is T3, mouse CD73 on transfected HEK cells (mouse, UniProt Q61503 29-551).
T3 construct: whole, on cells; also called murine CD73; gene ID 23959
T3 sequence (looked up): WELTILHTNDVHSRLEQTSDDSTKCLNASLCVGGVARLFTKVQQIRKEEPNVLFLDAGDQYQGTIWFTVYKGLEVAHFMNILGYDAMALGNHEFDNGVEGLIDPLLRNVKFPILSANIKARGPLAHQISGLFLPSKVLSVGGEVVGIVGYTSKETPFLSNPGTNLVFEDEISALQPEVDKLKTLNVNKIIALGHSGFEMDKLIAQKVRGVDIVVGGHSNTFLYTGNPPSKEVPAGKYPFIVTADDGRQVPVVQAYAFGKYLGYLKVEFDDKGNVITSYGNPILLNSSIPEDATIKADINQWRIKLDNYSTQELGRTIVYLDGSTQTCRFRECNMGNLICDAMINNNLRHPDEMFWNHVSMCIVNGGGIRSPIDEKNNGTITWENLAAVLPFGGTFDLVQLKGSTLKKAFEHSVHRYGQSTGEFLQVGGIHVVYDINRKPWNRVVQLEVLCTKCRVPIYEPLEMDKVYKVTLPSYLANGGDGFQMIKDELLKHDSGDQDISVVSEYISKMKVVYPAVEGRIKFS
Nature of the assay: specificity column, binding to human (h) and mouse (m) CD73. As for the experimental part:
as §1

In assay [6] the target is T2, human CD73 on cells (CD73-transfected …). Nature of the assay: flow cytometry, human CD73-expressing cells; competitor: human IgG hcAb SB96. As for the experimental part: as §1, §2
Assay [7] has the same target. Nature of the assay: flow cytometry, human CD73-expressing cells; competitor: human IgG hcAb SB116. As for the experimental part: as §1, §2
For assay [8] the target is unchanged. Nature of the assay: flow cytometry, human CD73-expressing cells; competitor: MEDI9447. As for the experimental part:
as §1, §2

Assay [9] shares this target. The assay is described as follows: flow cytometry, human CD73-expressing cells; competitor: human IgG hcAb SB121. As for the experimental part:
as §1, §2

For assay [10] the target is unchanged. The assay is described as follows: flow cytometry, human CD73-expressing cells; competitor: human IgG hcAb SB141. As for the experimental part: as §1, §2

B1: SB96 rabbit IgG hcAb (Fc fusion)
heavy: DVQLQASGGGLVQPGGSLRLSCTASGFTLDYLSIGWFRQVPGKEREGVSCINSSGGSTNYADSLKGRLTISRDNAKNTVYLQMNSLKPEDTAVYYCAAHKYYYCSNKVEVFDYWGQGTPVTVSS
notes: VHH fused upstream of hinge and Fc of rabbit IgG; also called Nb-rbIgG hcAb SB96; not shown: hinge and Fc-domains of rabbit IgG
Consider B1, for which, in assay [1], the koff stood at 3.9e-05 s⁻¹. Besides, the “percent inhibition of binding” value in assay [2] is 70%; in assay [3], -25%; in [4], 90%; in assay [6], 100%; in [7], 73%; in assay [8] it was 92%. Moreover, the “percent inhibition of binding” value in assay [9] was -29%; in assay [10], 17%. For the same molecule, the binding result in assay [5] was “binds”.

B2: SB121 rabbit IgG hcAb (Fc fusion)
heavy: QVQLQESGGGLVQAGGSLRLSCAASGSIGSIIAMGWYRQGPGKQRELVARMFTDDGSTNYDDSVKGRFTISRDSAGTTVYLQMNSLKPEDTAVYYCNAQRRWNAYWGPGTQVTVSS
notes: not shown: hinge and Fc-domains of rabbit IgG
Take B2: the koff in [1] is 0.022 s⁻¹. The “percent inhibition of binding” value in [2] turned out to be 85%; in [3] it was 0%; in assay [4], 77%; in assay [6], 53%; in [7] it was 75%; in assay [8], 74%. The “percent inhibition of binding” value in assay [9] was determined as 69%; in assay [10], 77%. Besides, in assay [5], the binding result is listed as “binds”.

B3: SB143 rabbit IgG hcAb (Fc fusion)
heavy: QVQLVESGGGLVQAGGSLRLSCAASGRTFSRSTMGWFRQAPGKERVFVAAIRWIGGTTTYGDSVKGRFTISVDNAKNTLYLQMNSLKPEDTAVYYCAATAGGPYYLGGRDILYDYWGQGTQVTVSS
notes: as for B2
For B3, the dissociation rate constant (koff) in assay [1] amounted to 0.0013 s⁻¹. Also, the “percent inhibition of binding” value in assay [2] amounted to 91%; in assay [3], 16%; in assay [4] it was 99%; in [6] it was 100%; in assay [7], 97%; in assay [8], 98%. Further, the “percent inhibition of binding” value in [9] worked out at 13%; in assay [10] it was 35%.

B4: SB144 rabbit IgG hcAb (Fc fusion)
heavy: QVQLVESGGGLVQAGGSLRLSCAASGRTFSGSTMGWFRQAPGKERAFVAAIRWIGGTAKYGDSVKGRFTISIDNAKNTLYLQMNSLKPEDTAVYYCAATAGGPDYLGGRDIVYDYWGQGTQVTVSS
notes: as for B2
For B4, in [1], the koff was found to be 0.00023 s⁻¹. Also, in assay [5], the binding result is recorded as “binds”.

B5: SB141 rabbit IgG hcAb (Fc fusion)
heavy: QVQLVESGGGLVQPGGSLRLSCAASGFTFINYHMSWLRQAPGKGLEWVSEIHSRGDITSYTNSVKGRFTISRDNAKNTLYLQMNSLKFDDTAVYYCARSRDLFNEGEYDYWGRGTQVTVSS
notes: as for B2
As for B5, the koff in assay [1] was found to be 0.00045 s⁻¹. Moreover, the “percent inhibition of binding” value is 66% in [2]; -7% in [3]; 40% in assay [4]; 13% in assay [6]; 16% in [7]; 26% in [8]. Besides, the “percent inhibition of binding” value in assay [9] is -1%; in assay [10], 84%.

B6: SB116 rabbit IgG hcAb (Fc fusion)
heavy: QVKLQESGGGRVQTGGSLRLSCAASGISFSITTMYWYRQAPGEQRQLVALITDRGNTYYVDSVKGRFTISRDDSKNTVYLQMNDLKPEDTAVYFCNSIPGNDWGQGTQVTVSS
notes: also called SB116-rbFc; dimeric SB116 Fc construct; not shown: hinge and Fc-domains of rabbit IgG
Take B6: the koff in assay [1] was 0.00017 s⁻¹. The “percent inhibition of binding” value in assay [2] stood at 65%; in [3], 2%; in [4], 94%; in [6], 100%; in assay [7] it was 72%; in [8], 97%. Further, the “percent inhibition of binding” value is 6% in [9] and 47% in [10]. The binding result in assay [5] is on record as “binds”.
